Laboratory results taken from the RNAGym collection of RNA variant scans (doi:10.1073/pnas.2313332121).
Fewer inactive variants are shown than the library holds.

B1: TPR 5TU (parent)
chain: GGAUCUUCUCGAUCUAACAAAAAAGACAAAUCUGCCACAAAGCUUGAGAGCAUCUUCGGAUGCAGAGGCGGCAGCCUUCGGUGGCGCGAUAGCGCCAACGUUCUCAACUAUGACACGCAAAACGCGUGCUCCGUUGAAUGGAGUUUAUCAUG

Variants of: B1
Test: polymerase ribozyme fitness, log enrichment relative to wild type (log ratio); higher = more active; in vitro selection for triplet polymerase activity
How it was run: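 In triplicate, a single round of in vitro selection was run on each mutant library, PCR-built and transcribed, covering one subunit of a heterodimeric triplet polymerase ribozyme. Frozen incubation at −7 °C followed annealing with a biotinylated primer, partner subunit and triplets, and extended constructs were then gel-excised, streptavidin-captured and taken through RT-PCR. Fitness is the logarithm of genotype enrichment over wild-type enrichment, from inverse-variance-weighted replicate averages of Illumina-sequenced inputs and outputs. […] only genotypes with ≥10 input reads and ≥1 read per output were kept.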

First: GGAUCUUCUCGAUCUAACAAAAAAGACAAAUCUGCCACGAAGCUUGAGAGCAUCUUCGGAUGCAGAGGCGGCAGCCUUCGAUGGCGCGAUAGCGCGAACGUUCUCAACUAUGACACGCAAAACGCGUGCUCCGUUGAAUGGAGUUUAUCAUG [A39G G81A C96G]
Second: GGAUCUUCUCGAUCUAACAAAAAAGACAAAUCUGCCACGAAGCUUGAGGGCAUCUUCGGAUGCAGAGGUGGCAGCCUUCGGUGGCGCGAUAGCGCCAACGUUCUCAACUAUGACACGCAAAAGGCGUGCUCCGUUGAAUCUAGUUUAUCAUG [A39G A49G C69U C123G G140C G141U]
The “polymerase ribozyme fitness (log ratio)” value of the first is higher: -3.28 for the first, ≤ -4.2 for the second.

First: GGAUCUUCUCGAUCUAACAAAAAAGACAAAUCUGCCACCAAGCUUGAUAGCAUCUUCGGAUGCAGAGCCGGCAGCCUUCCGUGGCGCGAUAGCGCUAACGGUCUCUACUAUGACACGCAAAACGCGUGCUCCGUUGAAUGGAGUUUAUCAUG [A39C G48U G68C G80C C96U U101G A106U]
Second: GGAUCUUCUCGAUCUAACAAAAAAGACAAAUCUGCCACGAAGCUUGAGAGCAUCUUGGGAUGCAGAGGCGGCAGCCUUCGGUGGCGCGAUAGCGCCAACGUUCUCAACUAUGACACGCAAAACGCGUGCUCCGUUGAAUGGAGUUUAUCAUG [A39G C57G]
The “polymerase ribozyme fitness (log ratio)” value of the first is lower: ≤ -4.2 for the first, -2.43 for the second.

Compared with GGAUCUUCUCGAUCUAACAAAAAAGACAAAUCUGCCACGAAGCUUGAGAGCAUCUUCGGAUGCAGAGGCGGCAGCCUUCGGUGACGCGAUAGCGCCAACGUUCUCAACUAUGACACGCAAAACGCGUGCUCCGUUGAAUGGAGUUUAUCAUG [A39G G84A], GGAUCUUCUCGAUCUAACAAAAAAGACAAAUCUGCCACGAAGCUUGAGAGCAUUUUCGGAUGCAGAGGCGGCAACCUUCGGUGGCGCAAAAGCGCCAACGUUCUCAACUAUGACACGCAAAACGCGUGCUCCGUUGGAUGGAGUUUAUCAUG [A39G C54U G74A G88A U90A A137G] is lower in “polymerase ribozyme fitness (log ratio)” value: -1.84 for the first, ≤ -4.2 for the second.

First: GGAUCUUCUCGAUCUAACAAAAAAGACAAAUCUGCCACGAAGCUUGAGAGCAUCUUCAGAUGCAGAGGCGGCAGCCUUCGGUGGCGCGAUAGCGCCAACGUUCUCAACUAUGACACGCAAAACGCGUGCUCCGUUGAAUGGAGUGUAUCAUG [A39G G58A U145G]
Second: GGAUCUUCUCGAUCUAACAAAAAAGACAAAUCUGCCACGAAGCUUGAGAGCACCUUCGGAUGCAGAGGCGGCAGCCGUCGGUGGCGCGAUAGCGCCAACGUUCUCAACUAUGCCAAGCAAAACGCGUGCUCCGUUGAAUGGAGUUUAUCAUG [A39G U53C U77G A113C C116A]
The “polymerase ribozyme fitness (log ratio)” value of the first is higher: -1.12 for the first, ≤ -4.2 for the second.

Going from GGAUCUUCUCGAUCUAACAAAAAAGACAAAUCUGCCACUAAGCUUGAGAGCAUCUUCGGAUGCAGAGGCGGCAGCCUUCGGUGGCGCGAUAGCGCCAACGUUCUCAACUAUGACACGCAAAACGCGUGCUCCGUUGAAUGGAGUUUAUCAUG [A39U] to GGAUCUUCUCGAUCUAACAAAAAAGACAAAUCUGCCACGAAGCUUGAGAGCAUCUUCGGAUGCAGAGGCGGCAGCCUUCGGUGGCGCGAUAGCGCCAACGUUCUCAACUAUGACACGCAAAACGCGUGCUCCGUUGAAUGGAGUUUAUCAUG [A39G], the “polymerase ribozyme fitness (log ratio)” value rises from -1.9 to -1.53.

GGAUCUUCUCGAUCUAACAAAAAAGACAAAUCUGCCACGAAGCUUGAGAGCAUCUUCGGAUGCAGAGGCGGCAGCCUUCGGUGACGCGAUAGCGCCAACGUUCUCAACUAUGACACGCAAAACGCGUGCUCCGUUUAAUGGAGUUUAUCAUG [A39G G84A G136U] and GGAUCUUCUCGAUCUAACAAAAAAGACAAAUCUGCCACCAAGCUUGAGAGCAUCUUCGGAUGCAGAGGCGGCAGCCUUCGGUUGCGCGAUAGCGCCAACGUUCUCAACUAUGACACGCAAAACGCGUGCUCCGUUGACUGGAGUUUAUCAUG [A39C G83U A138C] are within 0.2 log units of each other in “polymerase ribozyme fitness (log ratio)” value: -4.02 for the first, -4.18 for the second.

First: GGAUCUUCUCGAUCUAACAAAAAAGACAAAUCUGCCACCAAGCUUGAGAGCAUCUUCGGAUGCAGAGGCGGCAGCCUUCGGUGGCGCCAUAGCGCCAACGUUCUCAAGUAUGACACGCAAAACGCGUGCUCCGUUGAAUGGAGUUUAUCAUG [A39C G88C C108G]
Second: GGAUCUUCUCGAUCUAACAAAAAAGACAAAUCUGCCACCAAGCUUGAGAGCAUCAUCGGAUGCAGAGGCGGCAGCCUUCGGUGGCGCGAUAGCGCCAACGUUCUCAACUAUGACACGCAAAACGCGUGCUCCGUUGAAUGGAGUUUAUUAUG [A39C U55A C149U]
The “polymerase ribozyme fitness (log ratio)” value of the first is lower: ≤ -4.2 for the first, -3.62 for the second.

GGAUCUUCUCGAUCUAACAAAAAAGACAAAUCUGCCACCAAGCUUGAGAGCAUCUUCGGAUGCAGAGGCGGCAGCCUUCGGUGGCUCGAUCGCGCCAACGUUCUCAACUAUGACACGCAAAACGCGUGCUCCGUUGAAUGGAGUUUAUCUUG [A39C G86U A91C A150U] and GGAUCUUCUCGAUCUAACAAAAAAGACAAAUCUGCCACGAAGCUUGAAAGCAUCUUCGAAUGCAGAGGCGGCAGCCUUCGGUGGCGCGAUAGCGCUAACGUGCUCAACUAUGACACGCAAAACGCGUCCUCCGUUGAAUGAAGGUUAUCAUG [A39G G48A G59A C96U U102G G128C G141A U144G] cannot be ordered by “polymerase ribozyme fitness (log ratio)” value: ≤ -4.2 for the first, ≤ -4.2 for the second.

GGAUCUUCUCGAUCUAACAAAAAAGACAAAUCUGCCACCAAGCUUGAGAGCAUCUUCGGAAGCAGAGGCGGCAGCCUUCGGUGGCGUGAUAGCUCCAACGCUCUCAACUAUGACACGCAAAACGCGUGCUCCGUUGAAUGGAGUUUUUCAUG [A39C U61A C87U G94U U101C A147U] and GGAUCUUCUCGAUCUAACAAAAAAGACAAAUCUGCCACGAAGCUUGAGAGCAUCAUCGGAUGCAGAGGCGGCAGCCUUCGGUGGCGCGAUCGCGCCAACGUUCUCAAAUAUGACACGCAAAACGCGUGCUCCGUUGAAUGGAGCUUAUCAUG [A39G U55A A91C C108A U144C] cannot be ordered by “polymerase ribozyme fitness (log ratio)” value: ≤ -4.2 for the first, ≤ -4.2 for the second.

For GGAUCUUCUCGAUCUAACAAAAAAGACAAAUCUGCCACGAAACUUGAGAGCAUCUUCGGAUGCAGAGGCGGCAGCCUUCGUUGGCGAGAUAGCUCCAACGUUCUCAACUAUGACACGCAAAACGCGUGCUCCGUUGAAUGGAGUUUAUCAUG [A39G G42A G81U C87A G94U], the “polymerase ribozyme fitness (log ratio)” value was ≤ -4.2.
